According to the supplement of paper PMC10724198:

What was measured:
Saccharomyces cerevisiae [1] = assay: protein stability index of tFT-peptide fusion in deletion strain of DAS1 (PSI (0-1 scale)); higher = more stable (slower turnover)
Saccharomyces cerevisiae [2] = assay: protein stability index of tFT-peptide fusion in wild type (PSI (0-1 scale)); higher = more stable (slower turnover); conditions: genetic background: wild type
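Throughout, for protein stability index of tFT-peptide fusion in deletion strain of DAS1: PSI is a weighted mean of each variant's read distribution over the sorted stability bins, computed only for variants having over 10 reads in total.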
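Throughout, for protein stability index of tFT-peptide fusion in wild type: PSI derived as read-weighted mean over the 8 sorting bins, only variants exceeding 10 total reads kept, mCherry placed adjacent to the peptide and sfGFP distal.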

Sequence	protein stability index (Saccharomyces cerevisiae [1])	protein stability index (Saccharomyces cerevisiae [2])
LKILRQRMNHQN	0.662	0.251
LKIPRQKMNHQN	0.679	0.484
LKISRQKMNHQN	0.677	0.323
LKRLRQKMNHQN	0.666	0.202
LKTLRQKMNHQN	0.672	0.205
LKWLRQKMNHQN	0.697	0.146
LLILRQKMNHQN	0.673	0.155
LLIQPLPVQFLN	0.624	0.0661
LSVYLSCVACIN	0.145	0.0226
LVEYLSCVACIN	0.373	0.247
LVVDLSCVACIN	0.367	0.137
LVVLLSCVACIN	0.0371	0.0235
LVVYLICVACIN	0.0584	0.0186
LVVYLSCFACIN	0.0433	0.0181
LVVYLSCVACIF	0.029	0.0136
LVVYLSCVACII	0.0431	0.0175
LVVYLSCVACINQ	0.207	0.187
LVVYLSCVACIW	0.0367	0.0175
LVVYLSCVACQN	0.097	0.0434
LVVYLSCVAEIN	0.0269	0.0146
LVVYLSCVAMIN	0.032	0.0127
LVVYLSCVASIN	0.0412	0.0148
LVVYLSCVAWIN	0.0302	0.0134

Sequence	protein stability index (Saccharomyces cerevisiae [1])	protein stability index (Saccharomyces cerevisiae [2])
LVVYLSCVTCIN	0.0605	0.0223
LVVYLSLVACIN	0.0617	0.0258
LVVYLSPVACIN	0.278	0.18
LVVYLSVVACIN	0.0878	0.0255
LVVYYSCVACIN	0.0266	0.0106
PDERNHLIKLLN	0.566	0.179
PDKLNHLIKLLN	0.609	0.133
PDKRLHLIKLLN	0.629	0.126
PDKRNHLDKLLN	0.578	0.574
PDKRNHLIELLN	0.702	0.272
PDKRNHLIFLLN	0.687	0.116
PDKRNHLIHLLN	0.586	0.0992
PDKRNHLIKDLN	0.557	0.628
PDKRNHLIKLLNA	0.665	0.13
PDKRNHLIKLLNE	0.662	0.564
PDKRNHLIKLLNG	0.662	0.17
PDKRNHLIKLLNT	0.663	0.144
PDKRNHLIKLLNY	0.657	0.16
PDKRNHLIKLMN	0.605	0.119
PDKRNHLIKMLN	0.598	0.0821
PDKRNHLIKWLN	0.694	0.182
PDKRNHLPKLLN	0.612	0.148
PDKRNHLSKLLN	0.659	0.136

Sequence	protein stability index (Saccharomyces cerevisiae [1])	protein stability index (Saccharomyces cerevisiae [2])
PDKRNHLVKLLN	0.585	0.133
PDKRNHLYKLLN	0.598	0.196
PDKRNPLIKLLN	0.581	0.42
PDKRVHLIKLLN	0.61	0.128
PEKRNHLIKLLN	0.608	0.101
PKILRQKMNHQN	0.678	0.194
PKLAASFWRVVG	0.691	0.172
PLLAASFWRVVG	0.678	0.157
PMLAASFWRVVG	0.702	0.162
PSKAASFWRVVG	0.686	0.139
PSKRNHLIKLLN	0.61	0.145
PSLAAFFWRVVG	0.691	0.13
PSLAAMFWRVVG	0.691	0.137
PSLAARFWRVVG	0.679	0.14
PSLAASFDRVVG	0.684	0.644
PSLAASFGRVVG	0.672	0.661
PSLAASFKRVVG	0.677	0.683
PSLAASFWNVVG	0.69	0.331
PSLAASFWRFVG	0.707	0.137
PSLAASFWRNVG	0.7	0.17
PSLAASFWRVFG	0.699	0.367
PSLAASFWRVKG	0.664	0.549
PSLAASFWRVMG	0.664	0.144

Sequence	protein stability index (Saccharomyces cerevisiae [1])	protein stability index (Saccharomyces cerevisiae [2])
PSLAASFWRVVE	0.696	0.684
PSLAASFWRVVGN	0.689	0.651
PSLAASFWRVVGV	0.685	0.674
PSLAASFWRVVL	0.724	0.617
PSLAASFWRVVM	0.743	0.282
PSLAASFWRVVQ	0.711	0.252
PSLAASFWRVVT	0.693	0.147
PSLAASFWRYVG	0.657	0.134
PSLAQSFWRVVG	0.699	0.188
PSLIASFWRVVG	0.672	0.12
PSLQASFWRVVG	0.633	0.111
PSLYASFWRVVG	0.674	0.0956
RGIQPLPVQFLN	0.581	0.112
RLDQPLPVQFLN	0.808	0.0831
RLGQPLPVQFLN	0.611	0.0875
RLIQPIPVQFLN	0.597	0.0323
RLIQPKPVQFLN	0.586	0.0691
RLIQPLFVQFLN	0.621	0.0762
RLIQPLPDQFLN	0.631	0.61
RLIQPLPVCFLN	0.582	0.0773
RLIQPLPVGFLN	0.587	0.322
RLIQPLPVQFKN	0.648	0.618
RLIQPLPVQFLE	0.743	0.633
